Patent US20190218296A1 (APEXIGEN, published 2019)

Tests used:
[1] = target: T1, recombinant cynomolgus monkey PD-L1 (cynomolgus monkey, UniProt G7PSE7 19-238); assay: direct ELISA on plate-coated recombinant cynomolgus monkey PD-L1; anti-human Fc-HRP, TMB, OD 650 nm
T1 construct: also called cynomolgus macaque PD-L1
Experimental: To assess specificity of the selected clones, a direct ELISA for human and cynomolgus monkey PD-L1 was performed. ELISA plates were coated with recombinant human or cynomolgus monkey PD-L1. […] Serial dilutions of chimeric anti-PD-L1 antibodies were added, and a secondary HRP-conjugated, anti-human Fc-specific antibody was added. After washing, TMB substrate was added and plates were read at OD 650 nm.

human PD-L1 on cells [2] = target: T2, human PD-L1 on cells (human, UniProt Q9NZQ7 19-290); assay: flow cytometry on monocyte-derived dendritic cells; PE anti-human Fc, MFI
T2 construct: whole, on cells; also called HEK-PD-L1 cells; PD-L1-expressing HEK 293 cells
T2 sequence (Q9NZQ7 19-290): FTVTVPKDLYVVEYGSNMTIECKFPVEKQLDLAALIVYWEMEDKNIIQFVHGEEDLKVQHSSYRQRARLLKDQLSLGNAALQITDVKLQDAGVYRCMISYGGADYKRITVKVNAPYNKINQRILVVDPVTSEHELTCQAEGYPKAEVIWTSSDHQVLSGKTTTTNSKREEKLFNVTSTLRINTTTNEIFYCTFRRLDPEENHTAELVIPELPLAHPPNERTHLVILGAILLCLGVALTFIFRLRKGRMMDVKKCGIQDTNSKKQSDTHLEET
Experimental: The chimeric PD-L1 antibodies were further assessed for their ability to bind to human myeloid-derived dendritic cells. CD14 monocytes were isolated from PBMC using directly conjugated magnetic beads (Miltenyi) and cultured for 7 days in the presence of GM-CSF (100 ng/ml) and IL-4 (50 ng/ml) (Peprotech) to generate myeloid dendritic cells (mDC). mDC were added to 96-well plates (100,000 cells/well) and serial dilution of anti-PD-L1 antibodies or IgG1 isotype control antibody was added in duplicates and plates were incubated for 30 min on ice. After washing, a PE-conjugated donkey anti-human Fc specific antibody (Jackson Immunoresearch, 1:200 dilution) was added and plates were further incubated for 15 minutes on ice. After washing, cells were analyzed using a MACS quant flow cytometer.

human PD-L1 on cells [3] = target: T2, human PD-L1 on cells; assay: flow cytometry on HEK-PD-L1 cells, saturation fit on a linear axis; column head prints only Kd, unit taken from the axis Ab (nM)
human PD-L1 on cells [4] = target: T2, human PD-L1 on cells; assay: flow cytometry on CD4 T cells activated with anti-CD3; MFI; column head prints only EC50, unit taken from the axis Antibody Concentration (nM)
human PD-L1 on cells [5] = target: T2, human PD-L1 on cells; assay: flow cytometry on activated CD4 T cells, saturation fit on a linear axis
recombinant human PD-L1 = target: T3, recombinant human PD-L1 (human, UniProt Q9NZQ7 19-238, limits assumed); assay: ELISA on human PD-L1, OD 650 nm
T3 construct: also called PD-L1 protein
T3 sequence (Q9NZQ7 19-238 limits assumed): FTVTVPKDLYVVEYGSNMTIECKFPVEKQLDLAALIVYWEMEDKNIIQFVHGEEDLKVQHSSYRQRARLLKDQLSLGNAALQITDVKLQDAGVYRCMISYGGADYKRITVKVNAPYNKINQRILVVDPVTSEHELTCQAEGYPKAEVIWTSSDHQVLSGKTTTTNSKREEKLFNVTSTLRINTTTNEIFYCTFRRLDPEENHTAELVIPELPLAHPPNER

human PD-L1 on cells [6] = target: T2, human PD-L1 on cells; assay: flow cytometry on HEK-PD-L1 cells; PE anti-human Fc, MFI
human PD-L1 on cells [7] = target: T2, human PD-L1 on cells; assay: flow cytometry on monocyte-derived dendritic cells, saturation fit on a linear axis
mouse PD-L1 = mouse PD-L1 (mouse, UniProt Q9EP73 19-239, limits assumed); assay: assay not described
Chain of mouse PD-L1 (Q9EP73 19-239 limits assumed): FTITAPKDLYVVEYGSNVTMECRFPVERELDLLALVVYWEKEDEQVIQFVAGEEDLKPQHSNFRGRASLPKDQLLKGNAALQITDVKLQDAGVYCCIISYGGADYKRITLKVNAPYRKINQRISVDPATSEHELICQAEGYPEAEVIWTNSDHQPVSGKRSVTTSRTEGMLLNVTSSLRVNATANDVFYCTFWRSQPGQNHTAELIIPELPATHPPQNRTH

human PD-L1 on cells [8] = target: T2, human PD-L1 on cells; assay: flow cytometry on activated CD4 T cells, MFI
human PD-L1 on cells [9] = target: T2, human PD-L1 on cells; assay: flow cytometry on human PD-L1 transfected HEK 293 cells; PE anti-human Fc, MFI
Experimental: Stable human PD-L1 transfected HEK 293 cells (Crown Bio, San Diego, Calif.) were added to 96-well plates (100,000 cells/well) and serial dilution of anti-PD-L1 antibodies or IgG1 isotype control antibody was added in duplicates and plates were incubated for 30 minutes on ice. After washing, a PE-conjugated donkey anti-human Fc specific antibody (Jackson Immunoresearch, West Grove, Pa. 1:200 dilution) was added and plates were further incubated for 15 minutes on ice. After washing, cells were analyzed using a MACS quant flow cytometer.

human PD-L1 on cells [10] = target: T2, human PD-L1 on cells; assay: flow cytometry on monocyte-derived dendritic cells, MFI
[11] = target: T4, human PD-L1-his (Sino Biologics) (human, UniProt Q9NZQ7 19-238); assay: competition ELISA: human PD-L1-his coated at 1 µg/ml, antibody dilutions, then human PD-1-mouse-Fc at 1 µg/ml, anti-mouse IgG-HRP, OD 650 nm
T4 construct: Bought from Sino Biologics; not shown: his tag
T4 sequence (Q9NZQ7 19-238 limits assumed): as the sequence (Q9NZQ7 19-238 limits assumed) above
Experimental: Plates were coated with 100 μl of 1 μg/ml human PD-L1-his (Sino Biologics, Beijing, China) in carbonate-bicarbonate buffer overnight. After washing, plates were blocked with PBS 0.05% Tween-20 for 1 hour, and serial dilutions of anti-PD-L1 human chimeric antibody or IgG1 isotype control antibody was added. […] After washing, goat anti-mouse IgG (H+L)-HRP antibody (Jackson ImmunoResearch West Grove, Pa.) and plates were further incubated for 1 hour. After washing, TMB substrate (SurModics, Eden Prairie, Minn.) was added. The reaction was stopped using stop solution (SurModics) and plates were read at OD=650 nanometer.

human PD-L1 on cells [12] = target: T2, human PD-L1 on cells; assay: flow cytometry on HEK PD-L1 cells, MFI
human PD-L1 on cells [13] = target: T2, human PD-L1 on cells; assay: flow cytometry on HEK PD-L1 cells, saturation fit on a linear axis

T1 sequence (G7PSE7 entry or part of it limits assumed): as the sequence (Q9NZQ7 19-238 limits assumed) above, with A33T, A34S, S62N, R68Q, Q82R, F173L, T185A, T192I, H215L counted along it

- EC50 (read off the curve) [1]: ~4 ng/mL
- EC50 (human PD-L1 on cells [2]): 0.4 nM
- Kd (human PD-L1 on cells [3]): 0.3 nM
- EC50 (human PD-L1 on cells [4]): 0.68 nM
- Kd (human PD-L1 on cells [5]): 0.015 nM
- EC50 (recombinant human PD-L1): 7.13 ng/mL
- EC50 (read off the curve) (human PD-L1 on cells [6]): ~0.4 nM
- Kd (human PD-L1 on cells [7]): 0.79 nM
- binding result (mouse PD-L1): no binding
- EC50 (human PD-L1 on cells [8]): 0.019 nM
- EC50 (human PD-L1 on cells [9]): 0.17 nM
- EC50 (human PD-L1 on cells [10]): 1.66 nM
- IC50 (read off the curve) [11]: ~20 ng/mL
- EC50 (human PD-L1 on cells [12]): 0.27 nM
- Kd (human PD-L1 on cells [13]): 0.16 nM
B1: chimeric anti-PD-L1 antibody 9A9 (antibody, human IgG1, V domains shown)
VH: QSVEESGGRLVTPGTPLTLTCTVSGIDLSGYWMSWVRQAPGKGLEYIGIVDNDGSAYYASWVNGRFTISKTSTTVDLKITSPTTEDTATYFCARQSGDWTFDLWGPGTLVTVSS
VL: DVVMTQTPASVSEPVGGTVTIKCQASQSIGRWLSWYQQKPGQPPKLLIYQASKLASGVPSRFSGSGSGTEFTLTISDLECADAATYYCQNNYDIIAYGNAFGGGTEVVVK
notes: also called c9A9; chimeric 9A9
